Test results: paper PMC3087504, “DNA Damage in Oocytes Induces a Switch of the Quality Control Factor TAp63α from Dimer to Tetramer”

T1: MBP-TAp63αR (Mus musculus, UniProt O88898 40-680, R318H)
T1 sequence: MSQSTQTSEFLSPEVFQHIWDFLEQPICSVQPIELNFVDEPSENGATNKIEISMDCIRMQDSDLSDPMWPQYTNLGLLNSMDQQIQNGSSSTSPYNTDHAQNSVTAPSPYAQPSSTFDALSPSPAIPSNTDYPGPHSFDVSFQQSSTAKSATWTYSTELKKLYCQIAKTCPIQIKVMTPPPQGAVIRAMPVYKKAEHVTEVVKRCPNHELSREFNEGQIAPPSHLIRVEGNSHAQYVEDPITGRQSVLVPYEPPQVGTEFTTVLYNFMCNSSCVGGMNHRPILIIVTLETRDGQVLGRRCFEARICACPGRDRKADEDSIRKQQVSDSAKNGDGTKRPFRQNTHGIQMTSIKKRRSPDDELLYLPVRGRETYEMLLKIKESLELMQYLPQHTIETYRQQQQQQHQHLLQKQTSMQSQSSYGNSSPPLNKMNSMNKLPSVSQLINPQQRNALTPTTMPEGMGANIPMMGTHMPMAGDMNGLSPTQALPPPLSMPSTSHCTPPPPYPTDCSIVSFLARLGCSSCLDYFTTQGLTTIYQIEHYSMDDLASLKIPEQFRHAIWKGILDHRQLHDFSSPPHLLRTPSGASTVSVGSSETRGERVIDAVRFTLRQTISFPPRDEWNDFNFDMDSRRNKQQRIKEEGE

T2: MBP-TAp63α (Mus musculus, UniProt O88898 40-680)
T2 sequence: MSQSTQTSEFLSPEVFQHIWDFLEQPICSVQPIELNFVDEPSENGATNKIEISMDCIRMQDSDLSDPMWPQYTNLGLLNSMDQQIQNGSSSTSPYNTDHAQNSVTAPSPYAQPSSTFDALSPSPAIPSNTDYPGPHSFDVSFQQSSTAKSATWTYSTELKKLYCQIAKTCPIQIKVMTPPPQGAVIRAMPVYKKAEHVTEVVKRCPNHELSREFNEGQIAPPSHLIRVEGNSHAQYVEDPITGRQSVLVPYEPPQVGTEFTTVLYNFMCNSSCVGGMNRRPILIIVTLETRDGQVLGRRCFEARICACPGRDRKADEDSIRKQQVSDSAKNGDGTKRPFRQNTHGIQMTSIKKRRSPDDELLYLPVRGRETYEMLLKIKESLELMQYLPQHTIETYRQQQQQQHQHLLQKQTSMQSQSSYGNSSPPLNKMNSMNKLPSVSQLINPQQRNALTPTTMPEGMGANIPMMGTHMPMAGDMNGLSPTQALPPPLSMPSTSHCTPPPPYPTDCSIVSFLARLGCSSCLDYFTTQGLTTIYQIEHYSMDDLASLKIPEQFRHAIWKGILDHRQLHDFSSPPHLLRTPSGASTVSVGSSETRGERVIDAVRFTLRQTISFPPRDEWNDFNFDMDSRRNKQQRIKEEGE

B1: random sequence (dsDNA)
DNA 1: CGAGTTGTAAGTCGAATTGATACCATAATGCACTACACG
DNA 2: CGTGTAGTGCATTATGGTATCAATTCGACTTACAACTCG
B2: p21 promoter response element (dsDNA)
DNA 1: GGCAGGAACATGTCCCAACATGTTGAGCCG
DNA 2: CGGCTCAACATGTTGGGACATGTTCCTGCC
B3: SELEX-based p63 binding sequence (dsDNA)
DNA 1: CCTATTCTAGACATGTGAGGACATGTCGATACTTATTCC
DNA 2: GGAATAAGTATCGACATGTCCTCACATGTCTAGAATAGG

Experiments:
[1] = target: T1, MBP-TAp63αR; experiment: fluorescence anisotropy; 300 nM DNA; 10 mM potassium phosphate pH 7.6, 200 mM NaCl, room temperature, 30 min; 15 nM p21 DNA (300 nM for controls), protein 0.1-15 µM monomer; settings: protein: recombinant; tags: N-term MBP; C-term His6; chain copies: 4; label: 5'-fluorescein
[2] = target: T2, MBP-TAp63α; experiment: as above; settings: protein: recombinant; tags: N-term MBP; C-term His6; chain copies: 2; label: 5'-fluorescein
[3] = target: T2, MBP-TAp63α; experiment: fluorescence anisotropy; two-site fit, monomer concentration; second-site KD negative, uninterpreted; 10 mM potassium phosphate pH 7.6, 200 mM NaCl, room temperature, 30 min; 15 nM p21 DNA (300 nM for controls), protein 0.1-15 µM monomer; settings: protein: recombinant; tags: N-term MBP; C-term His6; chain copies: 2; label: 5'-fluorescein

Binder | binding result [1] | binding result [2] | Kd [3] [µM]
B1 | no binding | no binding | 
B2 |  |  | 7.51 ± 1.32
B3 | no binding |  | 
